EP2544694B1 (Novelmed Therapeutics, Inc., dated 2018)

Target: human properdin (human, UniProt P27918 28-469)
Test: cell-based or functional assay

Chain of human properdin (P27918 28-469 limits assumed): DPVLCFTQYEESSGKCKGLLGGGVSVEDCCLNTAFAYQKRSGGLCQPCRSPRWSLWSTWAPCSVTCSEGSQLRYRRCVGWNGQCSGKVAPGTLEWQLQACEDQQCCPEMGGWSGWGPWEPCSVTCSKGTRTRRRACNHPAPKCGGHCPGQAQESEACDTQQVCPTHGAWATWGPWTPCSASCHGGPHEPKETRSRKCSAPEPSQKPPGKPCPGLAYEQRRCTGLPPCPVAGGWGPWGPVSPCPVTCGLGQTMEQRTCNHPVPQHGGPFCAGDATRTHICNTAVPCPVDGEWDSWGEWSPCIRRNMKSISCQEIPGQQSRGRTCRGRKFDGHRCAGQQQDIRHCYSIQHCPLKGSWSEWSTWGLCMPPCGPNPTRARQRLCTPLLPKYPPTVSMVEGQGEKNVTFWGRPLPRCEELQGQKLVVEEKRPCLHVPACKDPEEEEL

B1: anti-properdin monoclonal antibody IgG (14G11) (antibody, V domains shown)
VH: QVTLKESGPGILQPSQTLSLTCSFSGFSLSTSGMGVGWIRQPSGKGLEWLAHIWWDDVKSYNPALKSRLTISKDTSSSQVFLRIASVDTADTATYYCARIGDGYYSFDYWGQGTTLTVSS
VL: DIVMTQSHKFMSTSVGDRVSISCKASQDVSDAVAWFQQKPGQSPKLLIYSPSYRYTGVPDRFTGSGSGTDFTFTISSVQAEDLAVYYCQQHYSTPWTFGGGTKLEIKR
IC50 of inhibition of AP dependent hemolysis of rRBC in 10% normal human serum: 10 nM
